Laboratory results as given in patent US11312773B2, “Anti-PD-L1 antibody” (Fuso Pharmaceutical Industries, Ltd., priority 2016, dated 2022).

Experiments:
[1] = tested on: ovine PD-L1; assay: Flow cytometry reactivity with ovine PD-L1-EGFP expressing COS-7 cells; format: binding; details: 10 μg/ml
Description: (§1) COS-7 cells were subcultured at a density of 5×10^4 cells/cm^2 in 6-well plates, and then cultured overnight in RPMI 1640 medium containing 10% inactivated fetal bovine serum and 0.01% L-glutamine at 37° C. in the presence of 5% CO2. The pEGFP-N2-ovPD-1, pEGFP-N2-ovPD-L1, pEGFP-N2-poPD-1, pEGFP-N2-poPD-L1 or pEGFP-N2 (negative control) was introduced into COS-7 cells at 0.4 μg/cm^2 using Lipofectamine 2000 (Invitrogen). The cells were cultured for 48 hours (ovPD-1-EGFP expressing cell, ovPD-L1-EGFP expressing cell, poPD-1-EGFP expressing cell, and poPD-L1-EGFP expressing cell). In order to confirm the expression of ovine PD-1, ovine PD-L1, porcine PD-1 and porcine PD-L1 in the thus prepared expressing cells, intracellular localization of EGFP was visualized with an inverted confocal laser microscope LSM700 (ZEISS) or an all-in-one fluorescence microscope BZ-9000 (KEYENCE). It was confirmed by flow cytometry that rat anti-bovine PD-L1 monoclonal antibody cross-reacts with ovine and porcine PD-LL. […] After washing, the cells were reacted with allophycocyanine-labeled anti-rat Ig goat antibody (Beckman Coulter) at room temperature for 30 min. For analysis, FACS Verse (BD Bioscience) was used. As a negative control antibody, rat IgG2a (κ) isotype control (BD Bioscience) was used. For every washing operation and dilution of antibodies, 1% bovine serum albumin supplemented PBS was used.

[2] = tested on: canine CD80/PD-L1 binding; assay: Canine CD80/PD-L1 binding inhibition ELISA (cCD80-Ig immobilized, cPD-L1-Ig); details: antibody 0, 2.5, 5 and 10 μg/ml
Description: Using the canine PD-1-Ig, PD-L1-Ig and CD80-Ig (described above), anti-PD-L1 antibody was tested for its ability to inhibit canine PD-1/PD-L1 binding and CD80/PD-L1 binding. Briefly, canine PD-1-Ig or CD80-Ig was immobilized on flat-bottom 96-well plates.

[3] = tested on: porcine PD-1/PD-L1 binding; assay: Porcine PD-1/PD-L1 binding inhibition test (PD-1-EGFP COS-7 cells and PD-L1-Ig); details: antibody 0-50 μg/ml, porcine PD-L1-Ig 5 μg/ml
Description: Using ovine PD-1-EGFP expressing COS-7 cells and ovine PD-L1-Ig recombinant protein, or porcine PD-1-EGFP expressing COS-7 cells and porcine PD-L1-Ig recombinant protein, inhibition of ovine or porcine PD-1/PD-L1 binding by rat anti-bovine PD-L1 antibody […] was tested. […] Subsequently, the antibody 4G12 was reacted with 2×10^5 ovine PD-1-EGFP expressing COS-7 cells or porcine PD-1-EGFP expressing COS-7 cells at 37° C. for 30 min. After washing, ovine PD-L1-Ig or porcine PD-L1-Ig bound to cell surfaces was detected with Alexa Fluor 647-labeled anti-rabbit IgG (H+L) goat F(ab′)2 (Life Technologies). For analysis, FACS Verse (BD Biosciences) was used. As a negative control antibody, rat IgG2a (κ) isotype control (BD Biosciences) was used. Taking the proportion of PD-L1-Ig bound cells without antibody addition as 100%, the proportion of PD-L1-Ig bound cells at each antibody concentration was shown as relative value.

[4] = tested on: water buffalo leukocytes; assay: Flow cytometry reactivity with water buffalo leukocytes; format: binding, water buffalo (Bubalus bubalis)
Description: Peripheral blood of water buffalo (Bubalus bubalis; Asian water buffalo) was hemolyzed with ACK buffer to isolate leukocytes. […] After washing, reaction with allophycocyanine-labelled anti-rat Ig goat antibody (Beckman Coulter) and fluorescein isothiocyanate-labeled anti-mouse IgG2 goat antibody (Beckman Coulter) was conducted at room temperature for 30 min. For analysis, FACS Calibur (BD Biosciences) was used. As a negative control antibody, rat IgG2a (κ) isotype control (BD Biosciences) was used. For every washing operation and dilution of antibodies, 10% inactivated goat serum supplemented PBS was used.

[5] = tested on: porcine PD-L1; assay: Flow cytometry reactivity with porcine PD-L1-EGFP expressing COS-7 cells; format: binding; details: 10 μg/ml
Description: as §1

B1: 4G12: rat anti-bovine PD-L1 monoclonal antibody; VL SEQ ID NO: 1, VH SEQ ID NO: 2 (antibody, listed as Rattus norvegicus, V domains shown)
VH: MGWSQIILFLVAAATCVHSQVQLQQSGAELVKPGSSVKISCKASGYTFTSNFMHWVKQQPGNGLEWIGWIYPEYGNTKYNQKFDGKATLTADKSSSTAYMQLSSLTSEDSAVYFCASEEAVISLVYWGQGTLVTVSS
VL: MESQTHVLISLLLSVSGTYGDIAITQSPSSVAVSVGETVTLSCKSSQSLLYSENQKDYLGWYQQKPGQTPKPLIYWATNRHTGVPDRFTGSGSGTDFTLIISSVQAEDLADYYCGQYLVYPFTFGPGTKLELK
Binding to ovine PD-L1 [1]: binds to ovine and porcine PD-L1
Inhibitory activity against canine CD80/PD-L1 binding [2]: reduced the amounts of binding
Inhibition of porcine PD-1/PD-L1 binding [3]: capable of inhibiting
Binding to blood macrophages (CD14+ CD11b+ cells) of water buffalo [4]: strongly bound
Binding to lymphocytes (CD14− CD11b− cells) of water buffalo [4]: weakly bound
Binding to porcine PD-L1 [5]: binds to ovine and porcine PD-L1
